Reference: US20250152746A1, “BASE EDITING OF ANGPTL3 AND METHODS OF USING SAME FOR TREATMENT OF DISEASE” (Verve Therapeutics, Inc., priority 2020, published 2025)
m = 2'-O-methyl; r = 2'-OH (RNA)

B1: GA165: PCSK9 gRNA; protospacer CCGTCAGCTCCAGGCGGTCC (SEQ ID NO: 159) (nucleic acid)
guide: CCGUCAGCUCCAGGCGGUCCGUUUUAGAGCUAGAAAUAGCAAGUUAAAAUAAGGCUAGUCCGUUAUCAACUUGAAAAAGUGGCACCGAGUCGGUGCUUUU
modifications: sugars from the 5' end m3 r94 m3, linkages s3 o93 s3 (s phosphorothioate, o phosphodiester), T or U not given here
B2: GA173: PCSK9 gRNA; protospacer CTTGGTGAGGTATCCCCGGC (SEQ ID NO: 167) (nucleic acid)
guide: CUUGGUGAGGUAUCCCCGGCGUUUUAGAGCUAGAAAUAGCAAGUUAAAAUAAGGCUAGUCCGUUAUCAACUUGAAAAAGUGGCACCGAGUCGGUGCUUUU
modifications: sugars from the 5' end m3 r94 m3, linkages s3 o93 s3 (s phosphorothioate, o phosphodiester), T or U not given here
B3: GA164: PCSK9 gRNA; protospacer GTCCTCGTCCTCCTGCGCAC (SEQ ID NO: 158) (nucleic acid)
guide: GUCCUCGUCCUCCUGCGCACGUUUUAGAGCUAGAAAUAGCAAGUUAAAAUAAGGCUAGUCCGUUAUCAACUUGAAAAAGUGGCACCGAGUCGGUGCUUUU
modifications: sugars from the 5' end m3 r94 m3, linkages s3 o93 s3 (s phosphorothioate, o phosphodiester), T or U not given here
B4: GA167: PCSK9 gRNA; protospacer TCAGCTCCAGGCGGTCCTGG (SEQ ID NO: 161) (nucleic acid)
guide: UCAGCUCCAGGCGGUCCUGGGUUUUAGAGCUAGAAAUAGCAAGUUAAAAUAAGGCUAGUCCGUUAUCAACUUGAAAAAGUGGCACCGAGUCGGUGCUUUU
modifications: sugars from the 5' end m3 r94 m3, linkages s3 o93 s3 (s phosphorothioate, o phosphodiester), T or U not given here
B5: GA172: PCSK9 gRNA; protospacer CAGTGCGCTCTGACTGCGAG (SEQ ID NO: 166) (nucleic acid)
guide: CAGUGCGCUCUGACUGCGAGGUUUUAGAGCUAGAAAUAGCAAGUUAAAAUAAGGCUAGUCCGUUAUCAACUUGAAAAAGUGGCACCGAGUCGGUGCUUUU
modifications: sugars from the 5' end m3 r94 m3, linkages s3 o93 s3 (s phosphorothioate, o phosphodiester), T or U not given here
B6: GA171: PCSK9 gRNA; protospacer TCTTGGTGAGGTATCCCCGG (SEQ ID NO: 165) (nucleic acid)
guide: UCTTGGTGAGGTATCCCCGGGTTTTAGAGCTAGAAATAGCAAGTTAAAATAAGGCTAGTCCGTTATCAACTTGAAAAAGTGGCACCGAGTCGGTGCTTTT
modifications: 2'-O-methyl at 1, 2, other sugars, backbone and T or U not given here; further chemistry not fully specified
B7: GA170: PCSK9 gRNA; protospacer CCAGGACCGCCTGGAGCTGA (SEQ ID NO: 164) (nucleic acid)
guide: CCAGGACCGCCUGGAGCUGAGUUUUAGAGCUAGAAAUAGCAAGUUAAAAUAAGGCUAGUCCGUUAUCAACUUGAAAAAGUGGCACCGAGUCGGUGCUUUU
modifications: sugars from the 5' end m3 r94 m3, linkages s3 o93 s3 (s phosphorothioate, o phosphodiester), T or U not given here
B8: GA163: PCSK9 gRNA; protospacer CGTCCTCGTCCTCCTGCGCA (SEQ ID NO: 157) (nucleic acid)
guide: CGUCCUCGUCCUCCUGCGCAGUUUUAGAGCUAGAAAUAGCAAGUUAAAAUAAGGCUAGUCCGUUAUCAACUUGAAAAAGUGGCACCGAGUCGGUGCUUUU
modifications: sugars from the 5' end m3 r94 m3, linkages s3 o93 s3 (s phosphorothioate, o phosphodiester), T or U not given here
B9: GA247: PCSK9 gRNA; protospacer CCTCGCCAGGCGCTGGCAGG (SEQ ID NO: 240) (nucleic acid)
guide: CCUCGCCAGGCGCUGGCAGGGUUUUAGAGCUAGAAAUAGCAAGUUAAAAUAAGGCUAGUCCGUUAUCAACUUGAAAAAGUGGCACCGAGUCGGUGCUUUU
modifications: sugars from the 5' end m3 r94 m3, linkages s3 o93 s3 (s phosphorothioate, o phosphodiester), T or U not given here
B10: GA168: PCSK9 gRNA; protospacer CTTGGCGCAGCGGTGGAAGG (SEQ ID NO: 162) (nucleic acid)
guide: CUUGGCGCAGCGGUGGAAGGGUUUUAGAGCUAGAAAUAGCAAGUUAAAAUAAGGCUAGUCCGUUAUCAACUUGAAAAAGUGGCACCGAGUCGGUGCUUUU
modifications: sugars from the 5' end m3 r94 m3, linkages s3 o93 s3 (s phosphorothioate, o phosphodiester), T or U not given here
B11: GA169: PCSK9 gRNA; protospacer CGTGCGCAGGAGGACGAGGA (SEQ ID NO: 163) (nucleic acid)
guide: CGUGCGCAGGAGGACGAGGAGUUUUAGAGCUAGAAAUAGCAAGUUAAAAUAAGGCUAGUCCGUUAUCAACUUGAAAAAGUGGCACCGAGUCGGUGCUUUU
modifications: sugars from the 5' end m3 r94 m3, linkages s3 o93 s3 (s phosphorothioate, o phosphodiester), T or U not given here
B12: GA246: PCSK9 gRNA; protospacer GCCAGCGCCTGGCGAGGGCT (SEQ ID NO: 239) (nucleic acid)
guide: GCCAGCGCCUGGCGAGGGCUGUUUUAGAGCUAGAAAUAGCAAGUUAAAAUAAGGCUAGUCCGUUAUCAACUUGAAAAAGUGGCACCGAGUCGGUGCUUUU
modifications: sugars from the 5' end m3 r94 m3, linkages s3 o93 s3 (s phosphorothioate, o phosphodiester), T or U not given here
B13: GA166: PCSK9 gRNA; protospacer CGCCCGTGCGCAGGAGGACG (SEQ ID NO: 160) (nucleic acid)
guide: CGCCCGUGCGCAGGAGGACGGUUUUAGAGCUAGAAAUAGCAAGUUAAAAUAAGGCUAGUCCGUUAUCAACUUGAAAAAGUGGCACCGAGUCGGUGCUUUU
modifications: sugars from the 5' end m3 r94 m3, linkages s3 o93 s3 (s phosphorothioate, o phosphodiester), T or U not given here

Key:
PCSK9 gene [1] = assay: PCSK9 gRNA/SpCas9 editing in primary cynomolgus hepatocytes (Tables 2, 22); assay type: cell-based, cynomolgus monkey; details: SpCas9 mRNA MS002 1:1 by weight; for Cyno Primary Hepatocyte Editing % 100: 100 ng/RNA/mL; for Cyno Primary Hepatocyte Editing % 500: 500 ng/RNA/mL; for Cyno Primary Hepatocyte Editing % 2500: 2500 ng/RNA/mL
PCSK9 gene [2] = assay: PCSK9 gRNA/SpCas9 editing in primary human hepatocytes (Tables 2, 4); assay type: cell-based; details: SpCas9 mRNA MS002 1:1 by weight; for Human Primary Hepatocyte Editing % 100: 100 ng/RNA/mL; for Human Primary Hepatocyte Editing % 500: 500 ng/RNA/mL; for Human Primary Hepatocyte Editing % 2500: 2500 ng/RNA/mL
Outline: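 Editing at the PCSK9 site quantified by NGS of PCR amplicons from genomic DNA. Input: SpCas9 mRNA with gRNA, 1:1 by weight, transfected into primary human hepatocytes at 2500, 500 or 100 ng RNA/mL (tracr-modified guides at 2500, 1250, 500, 250 ng/mL).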

Molecule	Cyno Primary Hepatocyte Editing % 100 (PCSK9 gene [1])	Cyno Primary Hepatocyte Editing % 500 (PCSK9 gene [1])	Cyno Primary Hepatocyte Editing % 2500 (PCSK9 gene [1])	Human Primary Hepatocyte Editing % 100 (PCSK9 gene [2])	Human Primary Hepatocyte Editing % 500 (PCSK9 gene [2])	Human Primary Hepatocyte Editing % 2500 (PCSK9 gene [2])
B1	5.43%	18.00%	35.57%	4.99%	22.3%	40.27%
B2	2.06%	8.70%	35.03%	0.69%	3.94%	23.38%
B3	2.75%	13.96%	34.89%	2.68%	11.12%	25.77%
B4	11.98%	35.98%	66.07%	8.2%	25.87%	53.71%
B5	0.51%	2.11%	15.58%	0.32%	3.52%	14.01%
B6	1.29%	9.06%	27.79%	2.37%	9.38%	31.75%
B7	4.03%	11.48%	23.17%	2.9%	15.84%	31.35%
B8	5.99%	17.69%	49.50%	2.31%	9.2%	29.32%
B9	0.71%	2.62%	11.48%	0.25%	0.17%	6.76%
B10	4.75%	15.90%	41.49%	–	25.77%	54.99%
B11	3.45%	18.28%	42.38%	5.49%	15.15%	46.65%
B12	1.11%	5.78%	24.63%	0.08%	2.17%	17.95%
B13	3.93%	14.39%	44.77%	2.89%	10.99%	36.89%
